# Data reported in patent US10227388B2, “Peptides and combination of peptides for use in immunotherapy against non-small cell lung cancer and other cancers” (immatics biotechnologies GmbH, priority 2015, dated 2019).
# Biological target: HLA-A*02:01 (Homo sapiens, UniProt P04439, D140Y/D185E/D98H/E176V/E277Q/G131W/G231S/I119V/I121R/I166T/I218V/L300P/L318F/N151K/N90K/P208A/P217A/Q86G/Q94H/R138H/R169H/T345S)
# Test: MHC binding assay (UV-ligand exchange, ELISA, peptide exchange yield)
# Conditions: binding of HLA-class I restricted peptides to HLA-A*02:01
# How it was run: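 Peptide–HLA-A*02:01 complexes made by UV-ligand exchange of a UV-cleavable peptide for the test peptide. Exchange yield measured by ELISA: 100-fold diluted monomers captured on streptavidin, 1 h at 37° C., detected with HRP anti-β2m and TMB, absorbance at 450 nm.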
row,Substance,"Peptide exchange (MHC class I binding score, peptide exchange yield)"
1,447 (QLVPALAKV; listed as Homo sapiens) [compound 447],″++″ (≥20% = ++)
2,448 (NLLETKLQL; listed as Homo sapiens) [compound 448],″+++″ (≥50% = +++)
3,449 (KLAEGLDIQL; listed as Homo sapiens) [compound 449],″+++″ (≥50% = +++)
4,450 (FMIDASVHPTL; listed as Homo sapiens) [compound 450],″+++″ (≥50% = +++)
5,451 (LLLLDTVTMQV; listed as Homo sapiens) [compound 451],″++″ (≥20% = ++)
6,452 (ILLEHGADPNL; listed as Homo sapiens) [compound 452],″+++″ (≥50% = +++)
7,453 (KLLEATSAV; listed as Homo sapiens) [compound 453],″++″ (≥20% = ++)
8,454 (KLPPPPPQA; listed as Homo sapiens) [compound 454],″+++″ (≥50% = +++)
9,455 (SLLKEPQKVQL; listed as Homo sapiens) [compound 455],″++″ (≥20% = ++)
10,456 (LLIGHLERV; listed as Homo sapiens) [compound 456],″+++″ (≥50% = +++)
11,457 (SLLPGNLVEKV; listed as Homo sapiens) [compound 457],″+++″ (≥50% = +++)
12,458 (SLIDKLYNI; listed as Homo sapiens) [compound 458],″++″ (≥20% = ++)
13,459 (ALITEVVRL; listed as Homo sapiens) [compound 459],″++″ (≥20% = ++)
14,461 (VMFRTPLASV; listed as Homo sapiens) [compound 461],″++″ (≥20% = ++)
15,462 (KLAKQPETV; listed as Homo sapiens) [compound 462],″+++″ (≥50% = +++)
16,463 (SLVESHLSDQLTL; listed as Homo sapiens) [compound 463],″+++″ (≥50% = +++)
17,464 (ALNDCIYSV; listed as Homo sapiens) [compound 464],″+++″ (≥50% = +++)
18,465 (QLCDLNAEL; listed as Homo sapiens) [compound 465],″+++″ (≥50% = +++)
19,466 (VLIANLEKL; listed as Homo sapiens) [compound 466],″++++″ (≥75% = ++++)
20,467 (FLAKDFNFL; listed as Homo sapiens) [compound 467],″+++″ (≥50% = +++)
21,468 (YLRSVGDGETV; listed as Homo sapiens) [compound 468],″+++″ (≥50% = +++)

row,Substance,"Peptide exchange (MHC class I binding score, peptide exchange yield)"
1,469 (YLASDEITTV; listed as Homo sapiens) [compound 469],″+++″ (≥50% = +++)
2,471 (YLYNNMIAKI; listed as Homo sapiens) [compound 471],″+++″ (≥50% = +++)
3,472 (KLLEVSDDPQV; listed as Homo sapiens) [compound 472],″+++″ (≥50% = +++)
4,473 (AMATESILHFA; listed as Homo sapiens) [compound 473],″+++″ (≥50% = +++)
5,474 (YLDPALELGPRNV; listed as Homo sapiens) [compound 474],″+++″ (≥50% = +++)
6,475 (LLLNEEALAQI; listed as Homo sapiens) [compound 475],″+++″ (≥50% = +++)
7,476 (ALMERTGYSMV; listed as Homo sapiens) [compound 476],″+++″ (≥50% = +++)
8,477 (ALLPASGQIAL; listed as Homo sapiens) [compound 477],″+++″ (≥50% = +++)
9,478 (YLLHEKLNL; listed as Homo sapiens) [compound 478],″+++″ (≥50% = +++)
10,479 (SLFGNSGILENV; listed as Homo sapiens) [compound 479],″+++″ (≥50% = +++)
11,480 (ALLEDSCHYL; listed as Homo sapiens) [compound 480],″+++″ (≥50% = +++)
12,481 (GLIEDYEALL; listed as Homo sapiens) [compound 481],″+++″ (≥50% = +++)
13,484 (SLIEKVTQL; listed as Homo sapiens) [compound 484],″+++″ (≥50% = +++)
14,485 (NVPDSFNEV; listed as Homo sapiens) [compound 485],″+++″ (≥50% = +++)
15,486 (AVMESIQGV; listed as Homo sapiens) [compound 486],″+++″ (≥50% = +++)
16,487 (LLINSVFHV; listed as Homo sapiens) [compound 487],″+++″ (≥50% = +++)
17,488 (FLAEDPKVTL; listed as Homo sapiens) [compound 488],″+++″ (≥50% = +++)
18,490 (FLLQHVQEL; listed as Homo sapiens) [compound 490],″+++″ (≥50% = +++)
19,491 (GLNDRSDAV; listed as Homo sapiens) [compound 491],″++″ (≥20% = ++)
20,492 (SLFDGFADGLGV; listed as Homo sapiens) [compound 492],″+++″ (≥50% = +++)
21,493 (GLLGEKTQDLIGV; listed as Homo sapiens) [compound 493],″+++″ (≥50% = +++)

row,Substance,"Peptide exchange (MHC class I binding score, peptide exchange yield)"
1,494 (ALQPEPIKV; listed as Homo sapiens) [compound 494],″++″ (≥20% = ++)
2,495 (FIFSEKPVFV; listed as Homo sapiens) [compound 495],″+++″ (≥50% = +++)
3,496 (FLVEKQPPQV; listed as Homo sapiens) [compound 496],″+++″ (≥50% = +++)
4,497 (GLLEKLTAI; listed as Homo sapiens) [compound 497],″+++″ (≥50% = +++)
5,498 (KLWTGGLDNTV; listed as Homo sapiens) [compound 498],″+++″ (≥50% = +++)
6,500 (SLMEDQVLQL; listed as Homo sapiens) [compound 500],″+++″ (≥50% = +++)
7,501 (LLDPNVKSIFV; listed as Homo sapiens) [compound 501],″+++″ (≥50% = +++)
8,502 (RLLAQVPGL; listed as Homo sapiens) [compound 502],″+++″ (≥50% = +++)
9,503 (SLNHFTHSV; listed as Homo sapiens) [compound 503],″+++″ (≥50% = +++)
10,504 (GLSDGNPSL; listed as Homo sapiens) [compound 504],″++″ (≥20% = ++)
11,505 (SLAPGDVVRQV; listed as Homo sapiens) [compound 505],″++″ (≥20% = ++)
12,506 (KLLGKVETA; listed as Homo sapiens) [compound 506],″+++″ (≥50% = +++)
13,507 (KLIDDQDISISL; listed as Homo sapiens) [compound 507],″+++″ (≥50% = +++)
14,508 (ILAQEQLVVGV; listed as Homo sapiens) [compound 508],″+++″ (≥50% = +++)
15,509 (FLFDTKPLIV; listed as Homo sapiens) [compound 509],″+++″ (≥50% = +++)
16,510 (KLYSVVSQL; listed as Homo sapiens) [compound 510],″++″ (≥20% = ++)
17,512 (SLSEIVPCL; listed as Homo sapiens) [compound 512],″+++″ (≥50% = +++)
18,513 (SLWPSPEQL; listed as Homo sapiens) [compound 513],″++″ (≥20% = ++)
19,514 (ILVDWLVQV; listed as Homo sapiens) [compound 514],″+++″ (≥50% = +++)
